Data on 4 molecules can be found in patent US20180142032A1 (Sanofi, published 2018).

In assay [1] the target is T1, LAMP1::histag (human, UniProt P11279 29-382).
T1 construct: extracellular domain without signal peptide, C-terminal 6 His tag, made in HEK293 cells; also called recombinant human LAMP1; human LAMP1 (29-382)
T1 sequence: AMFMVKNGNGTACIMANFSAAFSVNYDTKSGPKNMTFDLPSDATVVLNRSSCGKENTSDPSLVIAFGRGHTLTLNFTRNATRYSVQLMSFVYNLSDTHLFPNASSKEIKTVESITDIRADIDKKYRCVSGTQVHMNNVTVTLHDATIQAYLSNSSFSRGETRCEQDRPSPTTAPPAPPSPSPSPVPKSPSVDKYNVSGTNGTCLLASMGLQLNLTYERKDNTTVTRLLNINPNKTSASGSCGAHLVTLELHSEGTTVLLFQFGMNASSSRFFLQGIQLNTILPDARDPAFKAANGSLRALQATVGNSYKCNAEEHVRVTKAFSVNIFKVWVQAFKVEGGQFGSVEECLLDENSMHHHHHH
The experiment in a line: SPR (BIAcore 2000), mAb captured by anti-Fc, LAMP1 injected 1 to 256 nM. On the procedure: The binding kinetics of the murine, chimer or humanized anti-LAMP1 mAbs were determined by surface plasmon resonance assay using a BIAcore 2000 (BIAcore Inc., Uppsala, N.J.). […] A mouse anti-αhuman Fc IgG1 (BIAcore #BR-1008-39) and rabbit anti-αmurine Fc IgG1 (BIAcore #BR-1008-38) (50 μg/mL in […], pH5) were immobilized on the activated chips in all flow cells. The immobilization was carried out at a flow rate of 10 μL/min up to saturation. The chip was then blocked by injection of 70 μL of ethanolamine-HCl, pH 8.5, followed by one wash with 3 M MgCl₂ for anti-αhuman Fc IgG1 and one wash with 10 mM Glycine-HCl pH 1.7 for anti-αmurine Fc IgG1. To measure the binding of anti-LAMP1 mAbs to LAMP1, antibodies were used at 1-5 μg/mL in BIAcore running buffer (HBS-EP). […] Following completion of the injection phase, dissociation was monitored in a BIAcore running buffer at the same flow rate for 600 sec. […] Individual sensorgrams were analyzed using BIAevaluation software.

In assay [2] the target is T2, recombinant human LAMP2 with a C-terminal 10 His-tag (human, UniProt P13473 29-375).
T2 construct: bought; also called soluble LAMP2 protein (R&D Systems 6228-LM)
T2 sequence (P13473 other isoform, or with tags, fused parts or gaps): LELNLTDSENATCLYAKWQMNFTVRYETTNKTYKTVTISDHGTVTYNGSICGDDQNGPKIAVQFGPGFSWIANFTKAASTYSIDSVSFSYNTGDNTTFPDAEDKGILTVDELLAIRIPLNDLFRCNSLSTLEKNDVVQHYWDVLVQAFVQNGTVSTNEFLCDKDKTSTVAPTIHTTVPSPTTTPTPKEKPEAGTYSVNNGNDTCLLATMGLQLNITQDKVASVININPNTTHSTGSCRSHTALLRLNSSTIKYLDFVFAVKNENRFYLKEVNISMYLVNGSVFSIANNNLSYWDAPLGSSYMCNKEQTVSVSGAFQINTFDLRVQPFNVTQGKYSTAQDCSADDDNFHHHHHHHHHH
Kind of assay: ELISA on coated LAMP2. On the procedure:
LAMP2 is the closest member of the LAMP family with 35% sequence identity to LAMP1. […] Anti-LAMP1 antibodies were added to the plates and detected by using rabbit anti-mouse IgG conjugated with horseradish peroxidase (Sigma; #A9044). Antibody binding was visualized by adding TMB-H₂O₂ buffer and read at a wavelength of 450 nm.

The target of assay [3] is T3, hLAMP1_ΔGYQTI (human, UniProt P11279 29-412).
T3 construct: also called pXL5626
T3 sequence: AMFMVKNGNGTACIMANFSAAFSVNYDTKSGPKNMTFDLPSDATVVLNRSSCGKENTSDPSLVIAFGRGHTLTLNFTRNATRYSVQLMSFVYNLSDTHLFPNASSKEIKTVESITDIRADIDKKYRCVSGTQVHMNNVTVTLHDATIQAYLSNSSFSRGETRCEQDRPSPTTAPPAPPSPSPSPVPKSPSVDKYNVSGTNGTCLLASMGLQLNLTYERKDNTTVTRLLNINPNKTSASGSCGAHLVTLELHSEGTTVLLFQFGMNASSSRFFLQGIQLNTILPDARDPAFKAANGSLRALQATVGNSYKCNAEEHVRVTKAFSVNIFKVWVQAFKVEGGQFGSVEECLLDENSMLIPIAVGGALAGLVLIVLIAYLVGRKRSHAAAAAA
The experiment in a line: flow cytometry, transfected 293-F cells.

Assay [4] addresses T4, LAMP1_mseq2_ΔGYQTI (human; mouse).
T4 construct: on cells; also called pXL6013
Kind of assay: flow cytometry, transfected 293-F cells.

Assay [5] addresses T5, LAMP1_mseq3_ΔGYQTI (human; mouse).
T5 construct: on cells; also called pXL6014
The experiment in a line: flow cytometry, transfected 293-F cells.

The target of assay [6] is T6, LAMP1_mseq5_ΔGYQTI (human; mouse).
T6 construct: on cells; also called pXL6017
The experiment in a line: flow cytometry, transfected 293-F cells.

Assay [7] has as its target T7, mLAMP1_L12_LAMP1_L34::histag (mouse/human hybrid).
T7 construct: mouse LAMP1 (25-189) and human LAMP1 (196-382), His tag; also called Loop1-2: mLAMP1 Loop3-4: hLAMP1
T7 chain: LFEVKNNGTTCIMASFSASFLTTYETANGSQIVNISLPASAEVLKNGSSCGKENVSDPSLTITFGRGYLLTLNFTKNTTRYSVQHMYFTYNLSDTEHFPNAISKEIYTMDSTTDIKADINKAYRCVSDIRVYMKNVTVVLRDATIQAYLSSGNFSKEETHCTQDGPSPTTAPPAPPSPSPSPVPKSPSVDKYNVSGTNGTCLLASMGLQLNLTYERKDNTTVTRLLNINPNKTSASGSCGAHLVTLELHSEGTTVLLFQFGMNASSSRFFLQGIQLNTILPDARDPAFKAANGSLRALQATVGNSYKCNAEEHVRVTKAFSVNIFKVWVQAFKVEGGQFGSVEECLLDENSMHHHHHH
Kind of assay: ELISA.

Assay [8] concerns the target T8, LAMP1_L12_mLAMP1_L34::histag (human/mouse hybrid).
T8 construct: human LAMP1 (29-195) and mouse LAMP1 (190-369), His tag; also called Loop1-2: hLAMP1 Loop3-4: mLAMP1
T8 chain: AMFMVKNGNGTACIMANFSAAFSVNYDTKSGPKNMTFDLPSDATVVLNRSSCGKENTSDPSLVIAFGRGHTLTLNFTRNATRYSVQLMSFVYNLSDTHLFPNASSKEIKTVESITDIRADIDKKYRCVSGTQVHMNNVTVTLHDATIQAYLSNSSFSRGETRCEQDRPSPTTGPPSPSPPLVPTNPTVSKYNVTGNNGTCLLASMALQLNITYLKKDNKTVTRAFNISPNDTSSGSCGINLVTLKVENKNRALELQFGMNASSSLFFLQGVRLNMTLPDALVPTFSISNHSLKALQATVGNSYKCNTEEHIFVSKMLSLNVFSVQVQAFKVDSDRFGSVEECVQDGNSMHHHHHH
The experiment in a line: ELISA.

Assay [9] has as its target T1, LAMP1::histag. The experiment in a line: ELISA on secreted LAMP1.
In assay [10] the target is T1, LAMP1::histag. The experiment in a line: ELISA on recombinant human LAMP1.
Assay [11] concerns the target T9, LAMP1_mseq1_ΔGYQTI (mouse; human).
T9 construct: on cells; also called pXL6012
Kind of assay: flow cytometry, transfected 293-F cells.

B1: huMAb1_1 (antibody, human IgG1, kappa)
heavy: not shown
light: DIQMTQSPSSLSASVGDRVTITCKASQDIDRYMAWYQDKPGKAPRLLIHDTSTLQSGVPSRFSGSGSGRDYTLTISNLEPEDFATYYCLQYDNLWTFGGGTKVEIKRTVAAPSVFIFPPSDEQLKSGTASVVCLLNNFYPREAKVQWKVDNALQSGNSQESVTEQDSKDSTYSLSSTLTLSKADYEKHKVYACEVTHQGLSSPVTKSFNRGEC
notes: humanized, VH1-huIgG1 and VL1-huCk
Regarding B1, the Kd in assay [1] came out at 8.2 nM.

B2: MAb3 (antibody, V domains shown)
VH: QIQLVQSGPELKKPGETVKISCKASGYIFTNYGMNWVKQAPGKGLKWMGWINTYTGESRYADDFKGRFALSLETSASTAYLQINNLENEDMATYFCAREDYYGNSPWFFDVWGAGTTVTVSS
VL: DIQMTQTTSSLSASLGDRVTISCNASQGINKYLNWYQQKPDGTVKLLIYYTSTLHSGVPSRFSGSGSGTDYSLTINNLEPEDIATYYCQQYTKLPFTFGSGTKLEIK
notes: murine monoclonal IgG, kappa, from hybridoma; also called murine MAb3
B2: in assay [2], the binding result is “no binding”. In addition, the mean fluorescence is 749 in assay [3], 803 in assay [4], 674 in [5] and 721 in [6]. In [1], this molecule returned a dissociation constant (Kd) of 4.7 nM.

B3: MAb1 (antibody, mouse IgG2a, kappa)
heavy: QVQLQQSGAELVKPGASVKMSCKASGYIFTNYNIHWVKKSPGQGLEWIGAIYPGNGDAPYSQKFKDKATLTADKSSSTTYMQLSRLTSEDSAVYYCVRANWDVAFAYWGQGTLVSVSAAKTTAPSVYPLAPVCGDTTGSSVTLGCLVKGYFPEPVTLTWNSGSLSSGVHTFPAVLQSDLYTLSSSVTVTSSTWPSQSITCNVAHPASSTKVDKKIEPRGPTIKPCPPCKCPAPNLLGGPSVFIFPPKIKDVLMISLSPIVTCVVVDVSEDDPDVQISWFVNNVEVHTAQTQTHREDYNSTLRVVSALPIQHQDWMSGKEFKCKVNNKDLPAPIERTISKPKGSVRAPQVYVLPPPEEEMTKKQVTLTCMVTDFMPEDIYVEWTNNGKTELNYKNTEPVLDSDGSYFMYSKLRVEKKNWVERNSYSCSVVHEGLHNHHTTKSFSRTPGK
light: DIQMTQSPPSLSASLGGKVTITCKASQDIDRYMAWYQDKPGKGPRLLIHDTSTLQPGIPSRFSGSGSGRDYSFSISNLEPEDIATYYCLQYDNLWTFGGGTKLEIKRADAAPTVSIFPPSSEQLTSGGASVVCFLNNFYPKDINVKWKIDGSERQNGVLNSWTDQDSKDSTYSMSSTLTLTKDEYERHNSYTCEATHKTSTSPIVKSFNRNEC
notes: murine monoclonal IgG, kappa, from hybridoma; also called murine MAb1
In the case of B3, the binding result in assay [7] and in assay [2] was “no binding” each time. The half-maximal effective concentration (EC50) was 0.18 nM in assay [8], about 0.2 nM in assay [9] and 0.18 nM in assay [10]. Besides, the mean fluorescence in [3] worked out at 914; in assay [11], 1030; in assay [4], 990; in [5] it was 888; in [6] it was 846. In assay [1], this molecule yielded a Kd of 4.8 nM.

B4: MAb2 (antibody, mouse IgG1, kappa)
heavy: QVQLQQSAAELARPGASVKMSCKASGYTFTSYTMHWVKQRPGQGLEWIGYFNPSSGYPEYNQKFKDKTTLTADKSSNTAFIQLNSLTSEDSAVYYCSRGYYYGSRGYALDFWGQGASVTVSSAKTTPPSVYPLAPGSAAQTNSMVTLGCLVKGYFPEPVTVTWNSGSLSSGVHTFPAVLQSDLYTLSSSVTVPSSTWPSETVTCNVAHPASSTKVDKKIVPRDCGCKPCICTVPEVSSVFIFPPKPKDVLTITLTPKVTCVVVDISKDDPEVQFSWFVDDVEVHTAQTQPREEQFNSTFRSVSELPIMHQDWLNGKEFKCRVNSAAFPAPIEKTISKTKGRPKAPQVYTIPPPKEQMAKDKVSLTCMITDFFPEDITVEWQWNGQPAENYKNTQPIMDTDGSYFVYSKLNVQKSNWEAGNTFTCSVLHEGLHNHHTEKSLSHSPGK
light: NIVLTQSPVSLAVSLGQRATISCRASESVDINGNTFMHWYQQKPGQSPKLVIYAASNIESGVPARFSGSGSSTDFTFTIDPVEADDVATYYCQQNIEDPWTFGGGTKVEIKRADAAPTVSIFPPSSEQLTSGGASVVCFLNNFYPKDINVKWKIDGSERQNGVLNSWTDQDSKDSTYSMSSTLTLTKDEYERHNSYTCEATHKTSTSPIVKSFNRNEC
notes: murine monoclonal IgG, kappa, from hybridoma; also called murine MAb2
For the molecule B4, the binding result in assay [7] and in [2] was “no binding” throughout. Also, the concentration for a half-maximal effect (EC50) was 0.25 nM in [8], about 0.3 nM in assay [9] and 0.25 nM in assay [10]. Moreover, the mean fluorescence was 757 in assay [3]; 105 in assay [11]; 694 in [4]; 694 in assay [5]; 629 in assay [6]. In assay [1], this molecule showed a Kd of 63.5 nM.
